According to patent US20240199755A1, “ANTAGONISTS AND AGONISTS OF THE TRANSFERRIN RECEPTOR-2 FOR USE IN THE TREATMENT OF DISEASES OF THE BONE” (Kymab Limited, priority 2018, published 2024):

Target: T1, Tfr2-ECD (Mus musculus, UniProt Q9JKX3)
T1 construct: full-length extracellular domain (ECD, aa 103-798) of murine Tfr2; His (N); MBP (N); c3 (protease site between MBP and ECD) (N); made in house; host or cells: Sf9 insect cells (baculovirus, pOCC211-Tfr2-ECD)
T1 sequence (Q9JKX3 103-798): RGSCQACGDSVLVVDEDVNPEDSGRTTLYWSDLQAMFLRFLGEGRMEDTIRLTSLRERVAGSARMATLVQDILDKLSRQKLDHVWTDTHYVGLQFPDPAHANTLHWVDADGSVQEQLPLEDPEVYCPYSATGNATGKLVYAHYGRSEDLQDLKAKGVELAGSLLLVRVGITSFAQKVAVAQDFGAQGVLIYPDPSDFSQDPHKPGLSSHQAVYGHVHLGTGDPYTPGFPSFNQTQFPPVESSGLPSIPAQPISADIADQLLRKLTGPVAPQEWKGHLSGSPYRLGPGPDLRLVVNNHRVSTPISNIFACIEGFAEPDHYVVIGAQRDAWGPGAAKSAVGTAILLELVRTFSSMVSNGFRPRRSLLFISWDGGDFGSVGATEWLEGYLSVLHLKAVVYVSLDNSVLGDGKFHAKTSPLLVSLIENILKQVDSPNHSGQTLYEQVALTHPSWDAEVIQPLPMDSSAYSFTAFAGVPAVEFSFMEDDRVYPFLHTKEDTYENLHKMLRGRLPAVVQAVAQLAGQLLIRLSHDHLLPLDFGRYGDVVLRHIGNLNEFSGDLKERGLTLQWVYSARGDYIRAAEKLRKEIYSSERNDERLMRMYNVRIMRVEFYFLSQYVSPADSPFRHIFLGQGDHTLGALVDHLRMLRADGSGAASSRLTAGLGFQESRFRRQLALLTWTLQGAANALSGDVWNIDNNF
Test: SPR binding of holo-Tf and BMP receptors to Tfr2-ECD immobilized on the sensor chip
Design: species or system murine
Conditions: 200 nM BMP receptors; binding level normalized to molecular weight
Description: For this purpose, Tfr2-ECD is immobilized on a Series S Sensor Chip C1 (GE Healthcare), by means of coupling the amino groups at 25° C. The carboxyl groups on the chip surface are activated for 7 minutes using a mixture of 196 mM 1-ethyl-3-(3-dimethylaminopropyl) carbodiimide-hydrochloride and 50 mM n-hydroxysuccinimide at a flow rate of 10 μl/min. Subsequently, 5 μg/ml Tfr2-ECD, diluted with sodium acetate buffer (pH 4.5), is injected at a flow rate of 5 μl/min up to a relative occupancy of 200 RU. Non-reacted groups are inactivated by injecting 1 M thanolamine-HCl (pH 8.5) for 7 minutes at a flow rate of 10 μl/min. In order to prepare a reference surface, the same procedure is carried out but without Tfr2-ECD being injected.
The binding assays are carried out at 37° C. at a flow rate of 30 μl/min. Each analyte is diluted by a running buffer (HBS-P, pH 7.4 together with 50 nM FeCl3). […] The values of the binding level are read out, relative to the baseline, 10 s before the end of the injection and are corrected with respect to the molar mass. […] The binding parameters are determined using the Biacore™ T100 evaluation software 2.03. […]
For binding analysis, an injection of analyte for 240 s or 300 s over a Tfr2-ECD surface was followed by 1000 s dissociation. The values of the binding levels were recorded from referenced signals 10 s before the end of injection relative to baseline response. […]

B1: BMPR-II: type II BMP receptor (R&D Systems) (protein, UniProt Q13873 27-1038, looked up)
Bone morphogenetic protein …: SQNQERLCAFKDPYQQDLGIGESRISHENGTILCSKGSTCYGLWEKSKGDINLVKQGCWSHIGDPQECHYEECVVTTTPPSIQNGTYRFCCCSTDLCNVNFTENFPPPDTTPLSPPHSFNRDETIIIALASVSVLAVLIVALCFGYRMLTGDRKQGLHSMNMMEAAASEPSLDLDNLKLLELIGRGRYGAVYKGSLDERPVAVKVFSFANRQNFINEKNIYRVPLMEHDNIARFIVGDERVTADGRMEYLLVMEYYPNGSLCKYLSLHTSDWVSSCRLAHSVTRGLAYLHTELPRGDHYKPAISHRDLNSRNVLVKNDGTCVISDFGLSMRLTGNRLVRPGEEDNAAISEVGTIRYMAPEVLEGAVNLRDCESALKQVDMYALGLIYWEIFMRCTDLFPGESVPEYQMAFQTEVGNHPTFEDMQVLVSREKQRPKFPEAWKENSLAVRSLKETIEDCWDQDAEARLTAQCAEERMAELMMIWERNKSVSPTVNPMSTAMQNERNLSHNRRVPKIGPYPDYSSSSYIEDSIHHTDSIVKNISSEHSMSSTPLTIGEKNRNSINYERQQAQARIPSPETSVTSLSTNTTTTNTTGLTPSTGMTTISEMPYPDETNLHTTNVAQSIGPTPVCLQLTEEDLETNKLDPKEVDKNLKESSDENLMEHSLKQFSGPDPLSSTSSSLLYPLIKLAVEATGQQDFTQTANGQACLIPDVLPTQIYPLPKQQNLPKRPTSLPLNTKNSTKEPRLKFGSKHKSNLKQVETGVAKMNTINAAEPHVVTVTMNGVAGRNHSVNSHAATTQYANGTVLSGQTTNIVTHRAQEMLQNQFIGEDTRLNINSSPDEHEPLLRREQQAGHDEGVLDRLVDRRERPLEGGRTNSNNNNSNPCSEQDVLAQGVPSTAADPGPSKPRRAQRPNSLDLSATNVLDGSSIQIGESTQDGKSGSGEKIKKRVKTPYSLKRWRPSTWVISTESLDCEVNNNGSNRAVHSKSSTAVYLAEGGTATTMVSKDIGMNCL
In the case of B1, the “Binding response of BMPRs to Tfr2-ECD compared with BMPs” value is reported as “weaker than BMPs”.
